The source of these data is the supplement of paper PMC9112550, “Optimization of the antimicrobial peptide Bac7 by deep mutational scanning” (BMC Biology, 2022).

In this data set the test system is Escherichia coli TOP10. The data set is described as follows: shrunken log2 fold change of peptide-encoding DNA abundance (4.5 h post-induction vs induction); higher = less antimicrobial activity (less host growth inhibition). The note with it: time post-induction: 4.5 h; library: site-saturation at positions 5, 18, 19, 20.
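Note: peptides expressed intracellularly from a pBAD plasmid library in pooled LB shake-flask culture, induced with 0.3% L-arabinose, DNA abundance read by NGS, three biological replicates, DESeq2 with apeglm shrinkage.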

In the case of RRIRIRPPRLPRPRPRPTADPRP, the “shrunken log2 fold change” value is -0.063.
For the sequence RRIRERPPRLPRPRPRPNWMPRP, the “shrunken log2 fold change” value is -0.24.
For RRIRDRPPRLPRPRPRPHGVPRP, the “shrunken log2 fold change” value was -0.00965.
The same measure for RRIRQRPPRLPRPRPRPPEFPRP: 0.0335; for RRIRPRPPRLPRPRPRPQPTPRP: -0.0242; for RRIRTRPPRLPRPRPRPGCKPRP: -0.161.
The same measure for RRIRWRPPRLPRPRPRPRPYPRP: 0.0357; for RRIRERPPRLPRPRPRPVKRPRP: 0.025; for RRIRNRPPRLPRPRPRPSGGPRP: 0.0638.
Regarding RRIRVRPPRLPRPRPRPEREPRP, the “shrunken log2 fold change” value was determined as 0.586.
As to RRIRCRPPRLPRPRPRPTLMPRP, the “shrunken log2 fold change” value is -0.0222.
The same measure for RRIRQRPPRLPRPRPRPFIVPRP: -0.136; for RRIRRRPPRLPRPRPRPVCQPRP: 0.179.
As for RRIRIRPPRLPRPRPRPHGTPRP, the “shrunken log2 fold change” value is -0.236.
Regarding RRIRERPPRLPRPRPRPTFEPRP, the “shrunken log2 fold change” value stood at 0.144.
In the case of RRIRTRPPRLPRPRPRPVLHPRP, the “shrunken log2 fold change” value is -0.139.
For the sequence RRIRRRPPRLPRPRPRPWMVPRP, the “shrunken log2 fold change” value is -0.151.
The same measure for RRIRVRPPRLPRPRPRPPVIPRP: -0.101; for RRIRHRPPRLPRPRPRPAFKPRP: -0.0994.
To RRIRMRPPRLPRPRPRPQCNPRP belongs 0.041.
For RRIRKRPPRLPRPRPRPVYFPRP, the “shrunken log2 fold change” value was -0.181.
RRIRSRPPRLPRPRPRPMMWPRP: the “shrunken log2 fold change” value worked out at 0.598.
Take RRIRPRPPRLPRPRPRPVSPPRP: the “shrunken log2 fold change” value is 0.0647.
To RRIRIRPPRLPRPRPRPQDCPRP belongs 0.00138.
In the case of RRIRCRPPRLPRPRPRPCSLPRP, the “shrunken log2 fold change” value was -0.477.
For the sequence RRIRQRPPRLPRPRPRPHIDPRP, the “shrunken log2 fold change” value was -0.224.
On to RRIRIRPPRLPRPRPRPTEKPRP, for which the “shrunken log2 fold change” value was found to be 0.0176.
On to RRIRSRPPRLPRPRPRPEDNPRP, for which the “shrunken log2 fold change” value worked out at 0.24.
As for RRIRPRPPRLPRPRPRPMMHPRP, the “shrunken log2 fold change” value was -0.0262.
The same measure for RRIRARPPRLPRPRPRPHQVPRP: -0.17; for RRIRERPPRLPRPRPRPLPPPRP: 0.124.
As for RRIRFRPPRLPRPRPRPDEHPRP, the “shrunken log2 fold change” value is -0.0688.
On to RRIRVRPPRLPRPRPRPALAPRP, for which the “shrunken log2 fold change” value is 0.484.
The same measure for RRIRWRPPRLPRPRPRPHWRPRP: 0.329; for RRIRWRPPRLPRPRPRPSPYPRP: -0.25; for RRIRDRPPRLPRPRPRPLEDPRP: -0.00783.
As to RRIRHRPPRLPRPRPRPNIDPRP, the “shrunken log2 fold change” value is -0.153.
As to RRIRERPPRLPRPRPRPSMFPRP, the “shrunken log2 fold change” value was -0.723.
On to RRIRRRPPRLPRPRPRPAMSPRP, for which the “shrunken log2 fold change” value came to 0.157.
Regarding RRIRLRPPRLPRPRPRPDPLPRP, the “shrunken log2 fold change” value is 0.172.
For RRIRNRPPRLPRPRPRPMRWPRP, the “shrunken log2 fold change” value stood at 0.892.
Take RRIRERPPRLPRPRPRPGPWPRP: the “shrunken log2 fold change” value is 0.186.
For RRIRWRPPRLPRPRPRPCERPRP, the “shrunken log2 fold change” value was -0.0115.
For the sequence RRIRQRPPRLPRPRPRPHYDPRP, the “shrunken log2 fold change” value was -0.295.
RRIRHRPPRLPRPRPRPTRQPRP: the “shrunken log2 fold change” value turned out to be 0.254.
Consider RRIRVRPPRLPRPRPRPGNLPRP, for which the “shrunken log2 fold change” value is -0.101.
RRIRCRPPRLPRPRPRPHLIPRP: the “shrunken log2 fold change” value came to 0.282.
With RRIRLRPPRLPRPRPRPTSEPRP, the “shrunken log2 fold change” value is -0.0829.
On to RRIRCRPPRLPRPRPRPQYQPRP, for which the “shrunken log2 fold change” value was -0.697.
Take RRIRVRPPRLPRPRPRPEVYPRP: the “shrunken log2 fold change” value was -0.0457.
Regarding RRIRVRPPRLPRPRPRPDEDPRP, the “shrunken log2 fold change” value was found to be 0.185.
On to RRIRPRPPRLPRPRPRPYRLPRP, for which the “shrunken log2 fold change” value was -0.136.
As for RRIRKRPPRLPRPRPRPNSGPRP, the “shrunken log2 fold change” value amounted to 0.0179.
To RRIRKRPPRLPRPRPRPAVSPRP belongs 0.0687; to RRIRDRPPRLPRPRPRPKYRPRP, -0.0164; to RRIRERPPRLPRPRPRPGMIPRP, -0.439.
For the sequence RRIRTRPPRLPRPRPRPWHIPRP, the “shrunken log2 fold change” value was -0.115.
The same measure for RRIRGRPPRLPRPRPRPHVYPRP: 0.469; for RRIRIRPPRLPRPRPRPEKRPRP: -0.0249; for RRIRRRPPRLPRPRPRPCRMPRP: 0.0963.
On to RRIRMRPPRLPRPRPRPESQPRP, for which the “shrunken log2 fold change” value worked out at 2.59.
The same measure for RRIRYRPPRLPRPRPRPLWEPRP: -0.369.
Consider RRIRRRPPRLPRPRPRPIYQPRP, for which the “shrunken log2 fold change” value was determined as 2.25.
As for RRIRERPPRLPRPRPRPLCVPRP, the “shrunken log2 fold change” value was -0.307.
Take RRIRQRPPRLPRPRPRPMDGPRP: the “shrunken log2 fold change” value is -0.199.
To RRIRHRPPRLPRPRPRPRYIPRP belongs -0.528; to RRIRMRPPRLPRPRPRPVTFPRP, -0.0159.
Take RRIRQRPPRLPRPRPRPHLHPRP: the “shrunken log2 fold change” value was -0.177.
Regarding RRIRCRPPRLPRPRPRPGQTPRP, the “shrunken log2 fold change” value was 0.0466.
For RRIRYRPPRLPRPRPRPSWEPRP, the “shrunken log2 fold change” value is -0.153.
On to RRIRQRPPRLPRPRPRPEEFPRP, for which the “shrunken log2 fold change” value was -0.0679.
The same measure for RRIRMRPPRLPRPRPRPVYHPRP: -0.435.
Regarding RRIRARPPRLPRPRPRPGYTPRP, the “shrunken log2 fold change” value was found to be 0.324.
For RRIRMRPPRLPRPRPRPTQCPRP, the “shrunken log2 fold change” value was found to be 0.00706.
The same measure for RRIRPRPPRLPRPRPRPKGGPRP: 1.33; for RRIRERPPRLPRPRPRPNPVPRP: -0.424; for RRIRLRPPRLPRPRPRPVVFPRP: -0.136.
As for RRIRQRPPRLPRPRPRPSAWPRP, the “shrunken log2 fold change” value amounted to 0.19.
RRIRFRPPRLPRPRPRPLVPPRP: the “shrunken log2 fold change” value was found to be 0.338.
With RRIRKRPPRLPRPRPRPAMAPRP, the “shrunken log2 fold change” value worked out at 0.664.
Turning to RRIRCRPPRLPRPRPRPTCWPRP, the “shrunken log2 fold change” value was 0.15.
RRIRMRPPRLPRPRPRPKVMPRP: the “shrunken log2 fold change” value was found to be 0.201.
Regarding RRIRMRPPRLPRPRPRPKDHPRP, the “shrunken log2 fold change” value stood at 0.458.
To RRIRDRPPRLPRPRPRPEPIPRP belongs -0.0153; to RRIRFRPPRLPRPRPRPRKRPRP, 0.263; to RRIRMRPPRLPRPRPRPRIAPRP, 0.786.
To RRIRFRPPRLPRPRPRPWHWPRP belongs 0.00852; to RRIRQRPPRLPRPRPRPYTIPRP, -0.0485.
As for RRIRMRPPRLPRPRPRPRNRPRP, the “shrunken log2 fold change” value was 0.687.
The same measure for RRIRFRPPRLPRPRPRPTGVPRP: 0.123.
Regarding RRIRMRPPRLPRPRPRPPHPPRP, the “shrunken log2 fold change” value is 0.873.
As to RRIRARPPRLPRPRPRPSPDPRP, the “shrunken log2 fold change” value came out at 0.553.
As to RRIRMRPPRLPRPRPRPYYVPRP, the “shrunken log2 fold change” value is -0.0412.
Take RRIRSRPPRLPRPRPRPNAGPRP: the “shrunken log2 fold change” value is 0.0362.
For the sequence RRIRVRPPRLPRPRPRPSHQPRP, the “shrunken log2 fold change” value was found to be 0.0669.
To RRIRNRPPRLPRPRPRPDEKPRP belongs -0.133; to RRIRRRPPRLPRPRPRPWFIPRP, 0.0648; to RRIRARPPRLPRPRPRPWRDPRP, 0.225.
With RRIRQRPPRLPRPRPRPLAFPRP, the “shrunken log2 fold change” value was -0.232.
Turning to RRIRRRPPRLPRPRPRPFISPRP, the “shrunken log2 fold change” value came out at 0.0236.
Regarding RRIRTRPPRLPRPRPRPIEAPRP, the “shrunken log2 fold change” value was -0.199.
To RRIRCRPPRLPRPRPRPEPIPRP belongs -0.0787; to RRIRGRPPRLPRPRPRPFTGPRP, -0.186.
As to RRIRYRPPRLPRPRPRPAQCPRP, the “shrunken log2 fold change” value was -0.0254.
Regarding RRIRPRPPRLPRPRPRPEEQPRP, the “shrunken log2 fold change” value came out at 0.00406.
Regarding RRIRERPPRLPRPRPRPSKPPRP, the “shrunken log2 fold change” value was found to be 0.0303.
For the sequence RRIRHRPPRLPRPRPRPTQLPRP, the “shrunken log2 fold change” value is 0.278.
The same measure for RRIRIRPPRLPRPRPRPITDPRP: -0.0192; for RRIRARPPRLPRPRPRPSHGPRP: 0.115; for RRIRPRPPRLPRPRPRPMYGPRP: -0.182.
The same measure for RRIRMRPPRLPRPRPRPTAHPRP: 0.767.
Turning to RRIRWRPPRLPRPRPRPGSPPRP, the “shrunken log2 fold change” value was found to be 0.0119.
In the case of RRIRQRPPRLPRPRPRPQKIPRP, the “shrunken log2 fold change” value is -0.29.
Consider RRIRHRPPRLPRPRPRPYRNPRP, for which the “shrunken log2 fold change” value is -0.191.
RRIRERPPRLPRPRPRPLYHPRP: the “shrunken log2 fold change” value was -0.419.
On to RRIRIRPPRLPRPRPRPNEYPRP, for which the “shrunken log2 fold change” value was -0.182.
As to RRIRVRPPRLPRPRPRPVENPRP, the “shrunken log2 fold change” value is 0.02.
For RRIRARPPRLPRPRPRPVLWPRP, the “shrunken log2 fold change” value came to 2.26.
To RRIRHRPPRLPRPRPRPGGKPRP belongs -0.0185.
The same measure for RRIRIRPPRLPRPRPRPDGNPRP: -0.0425.
Regarding RRIRGRPPRLPRPRPRPGYIPRP, the “shrunken log2 fold change” value is -0.0887.
Consider RRIRNRPPRLPRPRPRPNCAPRP, for which the “shrunken log2 fold change” value is -0.123.
For RRIRCRPPRLPRPRPRPHFDPRP, the “shrunken log2 fold change” value was 0.0458.
Consider RRIRHRPPRLPRPRPRPPWEPRP, for which the “shrunken log2 fold change” value stood at 0.193.
Turning to RRIRTRPPRLPRPRPRPFQWPRP, the “shrunken log2 fold change” value is -0.0875.
